Test results reported in the supplement of paper PMC11246515.
± gives the standard deviation of the averaged measurements.

Experiment: total protein half-life in vivo (active degradation + dilution); higher = more stable protein
[1] = E. coli NCM3722 delta-clpP delta-lon delta-hslV, growth: N-lim chemostat, doubling time 6 h
[2] = E. coli NCM3722 delta-hslV, growth: N-lim chemostat, doubling time 6 h
[3] = E. coli NCM3722 delta-lon, growth: N-lim chemostat, doubling time 6 h
[4] = wild type E. coli NCM3722, growth: C-lim chemostat, doubling time 3 h
[5] = wild type E. coli NCM3722, growth: C-lim chemostat, doubling time 12 h
[6] = wild type E. coli NCM3722, growth: P-lim chemostat, doubling time 6 h
[7] = wild type E. coli NCM3722, growth: P-lim chemostat, doubling time 12 h
[8] = E. coli NCM3722 delta-clpP, growth: N-lim chemostat, doubling time 6 h
[9] = E. coli NCM3722 delta-smpB, growth: N-lim chemostat, doubling time 6 h
[10] = wild type E. coli NCM3722, growth: C-lim chemostat, doubling time 6 h
[11] = wild type E. coli NCM3722, growth: N-lim chemostat, doubling time 6 h
[12] = wild type E. coli NCM3722, growth: N-lim chemostat, doubling time 12 h

| Sequence | total protein half-life in vivo [1] [h] | total protein half-life in vivo [2] [h] | total protein half-life in vivo [3] [h] | total protein half-life in vivo [4] [h] | total protein half-life in vivo [5] [h] | total protein half-life in vivo [6] [h] | total protein half-life in vivo [7] [h] | total protein half-life in vivo [8] [h] | total protein half-life in vivo [9] [h] | total protein half-life in vivo [10] [h] | total protein half-life in vivo [11] [h] | total protein half-life in vivo [12] [h] |
| --- | --- | --- | --- | --- | --- | --- | --- | --- | --- | --- | --- | --- |
| MNTLTFLLSTVIELYTMVLLLRIWMQWAHCDFYNPFSQFVVKVTQPIIGPLRRVIPAMGPIDSASLLVAYILSFIKAIVLFKVVTFLPIIWIAGLLILLKTIGLLIFWVLLVMAIMSWVSQGRSPIEYVLIQLADPLLRPIRRLLPAMGGIDFSPMILVLLLYVINMGVAEVLQATGNMLLPGLWMAL | 6.46 | 5.6 | 6.12 | 2.92 | 10.6 | 5.07 | 8.69 | – | – | – | – | – |
| MNVFNPAQFRAQFPALQDAGVYLDSAATALKPEAVVEATQQFYSLSAGNVHRSQFAEAQRLTARYEAAREKVAQLLNAPDDKTIVWTRGTTESINMVAQCYARPRLQPGDEIIVSVAEHHANLVPWLMVAQQTGAKVVKLPLNAQRLPDVDLLPELITPRSRILALGQMSNVTGGCPDLARAITFAHSAGMVVMVDGAQGAVHFPADVQQLDIDFYAFSGHKLYGPTGIGVLYGKSELLEAMSPWLGGGKMVHEVSFDGFTTQSAPWKLEAGTPNVAGVIGLSAALEWLADYDINQAESWSRSLATLAEDALAKRPGFRSFRCQDSSLLAFDFAGVHHSDMVTLLAEYGIALRAGQHCAQPLLAELGVTGTLRASFAPYNTKSDVDALVNAVDRALELLVD | 4.06 ± 0.23 | 3.71 ± 0.079 | 4.38 ± 0.57 | 2.97 ± 0.082 | 10.8 ± 2.4 | 5.86 ± 0.26 | 13.3 ± 3.4 | 3.13 ± 0.13 | 3.52 ± 0.088 | 5.59 ± 0.13 | 4.11 ± 0.22 | 6.8 ± 0.74 |
| MNTDTFMCSSDEKQTRSPLSLYSEYQRMEIEFRAPHIMPTSHWHGQVEVNVPFDGDVEYLINNEKVNINQGHITLFWACTPHQLTDTGTCQSMAIFNLPMHLFLSWPLDKDLINHVTHGMVIKSLATQQLSPFEVRRWQQELNSPNEQIRQLAIDEIGLMLKRFSLSGWEPILVNKTSRTHKNSVSRHAQFYVSQMLGFIAENYDQALTINDVAEHVKLNANYAMGIFQRVMQLTMKQYITAMRINHVRALLSDTDKSILDIALTAGFRSSSRFYSTFGKYVGMSPQQYRKLSQQRRQTFPG [P0ACH8] | – | 2.5 | – | 2.14 ± 0.34 | 4.03 ± 0.28 | – | 4.99 ± 1.6 | 2.09 ± 0.21 | 1.89 | 3.43 ± 0.17 | – | – |
| MRRLLSVAPVLLWLITPLAFAQLPGITSQPLPGGGQSWSLPVQTLVFITSLTFIPAILLMMTSFTRIIIVFGLLRNALGTPSAPPNQVLLGLALFLTFFIMSPVIDKIYVDAYQPFSEEKISMQEALEKGAQPLREFMLRQTREADLGLFARLANTGPLQGPEAVPMRILLPAYVTSELKTAFQIGFTIFIPFLIIDLVIASVLMALGMMMVPPATIALPFKLMLFVLVDGWQLLVGSLAQSFYS [P0AC05] | – | – | – | 2.76 | 9.42 | – | – | – | – | 6.05 | – | – |
| MRKSVIAIIIIVLVVLYMSVFVVKEGERGITLRFGKVLRDDDNKPLVYEPGLHFKIPFIETVKMLDARIQTMDNQADRFVTKEKKDLIVDSYIKWRISDFSRYYLATGGGDISQAEVLLKRKFSDRLRSEIGRLDVKDIVTDSRGRLTLEVRDALNSGSAGTEDEVTTPAADNAIAEAAERVTAETKGKVPVINPNSMAALGIEVVDVRIKQINLPTEVSEAIYNRMRAEREAVARRHRSQGQEEAEKLRATADYEVTRTLAEAERQGRIMRGEGDAEAAKLFADAFSKDPDFYAFIRSLRAYENSFSGNQDVMVMSPDSDFFRYMKTPTSATR [P0ABC3] | 6.51 ± 1.1 | 6.357 ± 0.024 | 6.347 ± 0.034 | 3.09 ± 0.1 | 11.7 ± 0.84 | 6 ± 0.65 | 13.8 ± 0.97 | 6.07 ± 0.18 | 5.72 ± 0.33 | 6.06 ± 0.14 | 6.653 ± 0.049 | 12.7 ± 0.77 |
| MSTSDDIHNTTATGKCPFHQGGHDQSAGAGTTTRDWWPNQLRVDLLNQHSNRSNPLGEDFDYRKEFSKLDYYGLKKDLKALLTESQPWWPADWGSYAGLFIRMAWHGAGTYRSIDGRGGAGRGQQRFAPLNSWPDNVSLDKARRLLWPIKQKYGQKISWADLFILAGNVALENSGFRTFGFGAGREDVWEPDLDVNWGDEKAWLTHRHPEALAKAPLGATEMGLIYVNPEGPDHSGEPLSAAAAIRATFGNMGMNDEETVALIAGGHTLGKTHGAGPTSNVGPDPEAAPIEEQGLGWASTYGSGVGADAITSGLEVVWTQTPTQWSNYFFENLFKYEWVQTRSPAGAIQFEAVDAPEIIPDPFDPSKKRKPTMLVTDLTLRFDPEFEKISRRFLNDPQAFNEAFARAWFKLTHRDMGPKSRYIGPEVPKEDLIWQDPLPQPIYNPTEQDIIDLKFAIADSGLSVSELVSVAWASASTFRGGDKRGGANGARLALMPQRDWDVNAAAVRALPVLEKIQKESGKASLADIIVLAGVVGVEKAASAAGLSIHVPFAPGRVDARQDQTDIEMFELLEPIADGFRNYRARLDVSTTESLLIDKAQQLTLTAPEMTALVGGMRVLGANFDGSKNGVFTDRVGVLSNDFFVNLLDMRYEWKATDESKELFEGRDRETGEVKFTASRADLVFGSNSVLRAVAEVYASSDAHEKFVKDFVAAWVKVMNLDRFDLL | 4.4 ± 0.59 | 3.14 ± 0.31 | 3.31 ± 0.44 | 3.116 ± 0.024 | 11.8 ± 0.71 | 5.34 ± 0.14 | 8.87 ± 0.34 | 4.3 ± 0.3 | 3.68 ± 0.21 | 5.85 ± 0.14 | 3.11 ± 0.44 | 3.44 ± 0.15 |
| MTDLPDSTRWQLWIVAFGFFMQSLDTTIVNTALPSMAQSLGESPLHMHMVIVSYVLTVAVMLPASGWLADKVGVRNIFFTAIVLFTLGSLFCALSGTLNELLLARALQGVGGAMMVPVGRLTVMKIVPREQYMAAMTFVTLPGQVGPLLGPALGGLLVEYASWHWIFLINIPVGIIGAIATLLLMPNYTMQTRRFDLSGFLLLAVGMAVLTLALDGSKGTGLSPLTIAGLVAVGVVALVLYLLHARNNNRALFSLKLFRTRTFSLGLAGSFAGRIGSGMLPFMTPVFLQIGLGFSPFHAGLMMIPMVLGSMGMKRIVVQVVNRFGYRRVLVATTLGLSLVTLLFMTTALLGWYYVLPFVLFLQGMVNSTRFSSMNTLTLKDLPDNLASSGNSLLSMIMQLSMSIGVTIAGLLLGLFGSQHVSVDSGTTQTVFMYTWLSMALIIALPAFIFARVPNDTHQNVAISRRKRSAQ | – | – | – | – | – | – | 15.7 | – | – | – | – | – |
